Data reported in patent US20250027068.
Changes are numbered by the printed parent chain.

Target: pooled human IgG

B1: PRT-287 (protein)
chain: MVTSVWTKGVTPPAKFTQGEDVFHAPYVANQGWYDITKEFNGKDDLLCGAATAGNMLHWWFDQNKEKIEAYLKKHPDKQKIMFGDQELLDVRKVINTKGDQTNSELFNYFRDKAFPNLSARRIGVMPDLVLDMFINGYYLNVYKTQTTDVNRTYQEKDRRGGIFDAVFTRGDQSKLLTSRHDFKEKNLKEISDLIKKELTEGKALGLSHTYANVRIGHVINLWGADFDSNGNLKAIYVTDSDSNASIGMKKYGVGVNSAGKVAISAKEIKEDNIGAQVLGLFTLSTGQDSWNQTN
Enzyme Activity Endpoint Assay: Fab′2: 700 ng/µL
Enzyme Activity Endpoint Assay: Fc: 392 ng/µL
Enzyme Activity Endpoint Assay: IgG: 0 ng/µL
Enzyme Activity Endpoint Assay: scIgG: 0 ng/µL

B2: PRT-279 (protein)
chain: MVTSVWTKGVTPPTDFIYGEDVLHAPYKAGQGWYDITKLFNGKDNLLCGAATAGNMLHWWFDQNKEQIENYLKKHPEKQKIIFNNQELFDLKAAIDTKDSQLDSKLFEYFLEKAFPYLSTKHLGVFPDHVIDMFINGYRLSLTNHGPTPVKRGSKDKRGGIFDAVFTRGVQSKLLTNRHDLKNKTLKEISDLIKQELTEGKALGISHTYANVRINHVINLWGADFDAEGNLEAIAVTDSDTNASIGMKKYFVGVNSSGKVAISAKEIEEDNIGAQVLGLFTLSTGQDIWNQTN
Enzyme Activity Endpoint Assay: Fab′2: 574 ng/µL
Enzyme Activity Endpoint Assay: Fc: 359 ng/µL
Enzyme Activity Endpoint Assay: IgG: 48 ng/µL
Enzyme Activity Endpoint Assay: scIgG: 0 ng/µL

B3: PRT-535 (protein)
chain: MANQEIRYSGDSEWANKKVWVYGITPPEEKAWFYSTYYLPWKKEYGWYDCNKRNPTADGMMCWAATASNLMHWWIAQNKEYIDLYGDKYKGPDKINFNGEQMFDVKEYIDPLDKPQESDIFQCFIDKAFADLSTKHEAGKGDEGINWFIHGIIPSYPAHGPTPVKLRYPYNPAGYFKDVFPRGDGVVLLGNNGDFKELGKERFNETIKDALANKKGIGLSIGPVNVRSSHVVTMWGAEFDENGDVSYIYMADNNDRWGVGCIRYQIVYVEGGTYTCYKTEIIGSDRPIPINRLVTLELGEEYWKQTNLEHHHHHH
Enzyme Activity Endpoint Assay: Fab′2: 6 ng/µL
Enzyme Activity Endpoint Assay: Fc: 0 ng/µL
Enzyme Activity Endpoint Assay: IgG: 1530 ng/µL
Enzyme Activity Endpoint Assay: scIgG: 0 ng/µL

B4: PRT-537 (protein)
chain: B3 chain with G10S, K30G, T66S, M71L, A128S, E143A, Y156S, M234I, V269E, G283P
Enzyme Activity Endpoint Assay: Fab′2: 0 ng/µL
Enzyme Activity Endpoint Assay: Fc: 0 ng/µL
Enzyme Activity Endpoint Assay: IgG: 1000 ng/µL
Enzyme Activity Endpoint Assay: scIgG: 0 ng/µL

B5: PRT-592 (protein)
chain: MANQEIRYSEETPSTITSVWTKGVTPPTDFIQNEDVLHAPYIANQGWYDITKTFNGKDDLLCGAATAGNMLHWWFDQNKEQIENYLKKHPEKQKINFNGEQMFDVKEAIDTKNSQTDSALFEYFKDKAFPYLSTKHLGVFPDHVIDMFINGYRLSLTNHGPTPVKRGTKDPRGGIFDAVFTRGDQSKLLTSRHDFKEKTLNEISDLIKQELTEGKALGLSHTYANVRINHVINLWGADFNAEGNLEAIYVTDSDSNASIGMKKYYVGVNSAGKVAISAKEIEGDNIGAQVLGLFTLSTGQDIWNQTNLEHHHHHH
Enzyme Activity Endpoint Assay: Fab′2: 664 ng/µL
Enzyme Activity Endpoint Assay: Fc: 359 ng/µL
Enzyme Activity Endpoint Assay: IgG: 0 ng/µL
Enzyme Activity Endpoint Assay: scIgG: 0 ng/µL

B6: PRT-593 (protein)
chain: B5 chain with N113D, S114H
Enzyme Activity Endpoint Assay: Fab′2: 797 ng/µL
Enzyme Activity Endpoint Assay: Fc: 396 ng/µL
Enzyme Activity Endpoint Assay: IgG: 0 ng/µL
Enzyme Activity Endpoint Assay: scIgG: 0 ng/µL

B7: PRT-548 (protein)
chain: B5 chain with S14K, Q32K, Q81E, N113D, S186T, S191A, A241S, S270A, N304E
Enzyme Activity Endpoint Assay: Fab′2: 727 ng/µL
Enzyme Activity Endpoint Assay: Fc: 458 ng/µL
Enzyme Activity Endpoint Assay: IgG: 0 ng/µL
Enzyme Activity Endpoint Assay: scIgG: 0 ng/µL

B8: PRT-560 (protein)
chain: B5 chain with S14K, Q32Y, N84R, N113D, G167Q, N201K, N240D, N304E
Enzyme Activity Endpoint Assay: Fab′2: 210 ng/µL
Enzyme Activity Endpoint Assay: Fc: 233 ng/µL
Enzyme Activity Endpoint Assay: IgG: 41 ng/µL
Enzyme Activity Endpoint Assay: scIgG: 312 ng/µL

B9: PRT-591 (protein)
chain: B5 chain with E83K, N113D
Enzyme Activity Endpoint Assay: Fab′2: 0 ng/µL
Enzyme Activity Endpoint Assay: Fc: 34 ng/µL
Enzyme Activity Endpoint Assay: IgG: 671 ng/µL
Enzyme Activity Endpoint Assay: scIgG: 0 ng/µL

B10: PRT-41 (protein)
chain: MANQEIRYSEVTPYHVTSVWTKGVTPPANFTQGEDVFHAPYVANQGWYDITKTFNGKDDLLCGAATAGNMLHWWFDQNKDYIDRYLEEHPEKQKINFNGEQMFDVKEAIDTKNSQLDSKLFEYFKEKAFPYLSTKHLGVFPDLVLDMFINGYRLSLTNHGPTPVKEGSKDPRGGIFDAVFTRGDQSKLLTSRHDFKEKNLKEISDLIKKELTEGKALGLSHTYANVRINHVINLWGADFDSNGNLKAIYVTDSDSNASIGMKKYFVGVNSAGKVAISAKEIKEDNIGAQVLGLFTLSTGQDSWNQTN
Enzyme Activity Endpoint Assay: Fab′2: 24 ng/µL
Enzyme Activity Endpoint Assay: Fc: 94 ng/µL
Enzyme Activity Endpoint Assay: IgG: 19 ng/µL
Enzyme Activity Endpoint Assay: scIgG: 50 ng/µL

B11: PRT-44 (protein)
chain: B10 chain with K57G, Y81Q, L116T, I175F, A178D
Enzyme Activity Endpoint Assay: Fab′2: 3 ng/µL
Enzyme Activity Endpoint Assay: Fc: 78 ng/µL
Enzyme Activity Endpoint Assay: IgG: 14 ng/µL
Enzyme Activity Endpoint Assay: scIgG: 60 ng/µL

B12: PRT-45 (protein)
chain: B10 chain with K57G, D80E, Y81Q, L116T, K201E
Enzyme Activity Endpoint Assay: Fab′2: 3 ng/µL
Enzyme Activity Endpoint Assay: Fc: 76 ng/µL
Enzyme Activity Endpoint Assay: IgG: 8 ng/µL
Enzyme Activity Endpoint Assay: scIgG: 67 ng/µL

B13: PRT-42 (protein)
chain: B10 chain with Y81Q, S114D, L145I, I175F
Enzyme Activity Endpoint Assay: Fab′2: 0 ng/µL
Enzyme Activity Endpoint Assay: Fc: 54 ng/µL
Enzyme Activity Endpoint Assay: IgG: 26 ng/µL
Enzyme Activity Endpoint Assay: scIgG: 53 ng/µL

B14: PRT-43 (protein)
chain: B10 chain with Y81Q, S114D, L116T, L145I, F195L
Enzyme Activity Endpoint Assay: Fab′2: 23 ng/µL
Enzyme Activity Endpoint Assay: Fc: 89 ng/µL
Enzyme Activity Endpoint Assay: IgG: 13 ng/µL
Enzyme Activity Endpoint Assay: scIgG: 32 ng/µL

B15: PRT-540 (protein)
chain: MANQEIRYSKNENPNVTIKWVHGIGEPTQAEKEKIEFYWYETNTTKFFNNRKVTHLGDSNQCWAKTASNMLHWWFVQNKENINKYIEKKNITGKINFNGEQMFDVKEGIDDNQEKEKSYIANTFRTKKAHNLSTKHKGDYIINGLAWYLYGLNNFKNAHGPTPVKKKPKFYGPALFKDVFNRGDGNTPIIEETDFKEYTKKEFEDTLSEALDSKKAIGINIYGSNVDYGHAITLWGAAFDEDENIIAIYVVDNNFKFENRIFPYGIWYEKEGRPYLFNYEINSFVKNRYVGEITTLDKGEAQWQETNLEHHHHHH
Enzyme Activity Endpoint Assay: Fab′2: 0 ng/µL
Enzyme Activity Endpoint Assay: Fc: 0 ng/µL
Enzyme Activity Endpoint Assay: IgG: 1490 ng/µL
Enzyme Activity Endpoint Assay: scIgG: 0 ng/µL

B16: PRT-536 (protein)
chain: MANQEIRYSGDSEWANKKVWVYGITPAEEGAWLYSTYYLPWKKEYGWYDCNKRNPTADGMMCWAASASNLMHWWIAQNKRYIDLYGDRYKGPDKINFNGEQMFDVKEYIDPLDKPQESDIFQCFIDKSFADLSTKHEAGKGDEGINWFIHGIIPSYPAHGPTPVKLRYPYNPAGYFKDVFPRGDGVVLGGNNGDFKELGKERFNETIKDALANKKGIGLSIGPVNVRKSHVETMWGAEFDENGDVSYIYMADNNDRWGVGCIRLQIVYVEGATYTCYKTEIIPSDRPIPINRLVTVELGEEYWKQTNLEHHHHHH
Enzyme Activity Endpoint Assay: Fab′2: 0 ng/µL
Enzyme Activity Endpoint Assay: Fc: 0 ng/µL
Enzyme Activity Endpoint Assay: IgG: 1530 ng/µL
Enzyme Activity Endpoint Assay: scIgG: 0 ng/µL

B17: PRT-562 (protein)
chain: MANQEIRYSKATPSHITSVWTKGVTPPEQFIQNEDVLHAPYIANQGWYDITKTFNGKDDLLCGAATAGNMLHWWFDQNKEQIENYLKKHPEKQKINFNGEQMFDVKEAIDTKDSQTNSALFSYFKDKAFPYLSTKHLGVFPDHVIDMFINGYRLSLTNHGPTPVKEQTKDPRGGIFDAVFTRGDQSKLLTSRHDFKEKTLNEISQLIKQELTEGKALGLSHTYANVRINHVINLWGADFNAEGNLEAIYVTDSDSNASIGMKKYYVGVNSAGKVAISAKEIEGDNIGAQVLGLFTLSTGQDIWQQTNLEHHHHHH
Enzyme Activity Endpoint Assay: Fab′2: 705 ng/µL
Enzyme Activity Endpoint Assay: Fc: 380 ng/µL
Enzyme Activity Endpoint Assay: IgG: 0 ng/µL
Enzyme Activity Endpoint Assay: scIgG: 238 ng/µL

B18: PRT-569 (protein)
chain: B17 chain with Q32Y
Enzyme Activity Endpoint Assay: Fab′2: 723 ng/µL
Enzyme Activity Endpoint Assay: Fc: 294 ng/µL
Enzyme Activity Endpoint Assay: IgG: 0 ng/µL
Enzyme Activity Endpoint Assay: scIgG: 0 ng/µL
